Results as given in patent US20230119254A1, “SYNERGISTIC AND TARGETING COMPOSITIONS FOR TREATMENT OF ARTERIAL AND VENOUS THROMBOSIS” (AstraZeneca AB, priority 2020, published 2023).
“Also recorded” adds a separate entry of the source. Read-outs that look alike come from different tables or passages of the source.

How the values were obtained:
[1] = system: arterial thrombosis; test: Electrical injury model (EIM) of arterial thrombosis in rabbits; type: in vivo, rabbit
Protocol: Rabbits were randomized into the following eleven groups with the treatments initiated 30 min before electrical injury.
Electrical injury generated occlusion in 60% of the rabbits treated with saline within 2 h. Average thrombosis weight was 7.8 mg.

[2] = comparison value for annexin V; cited from earlier work
[3] = system: thrombin generation in human platelet rich plasma; test: Thrombin generation by calibrated automated thrombography (CAT) in ADP-activated human PRP; type: cell-based; settings: for peak thrombin concentration / time to peak thrombin: 20 uM ADP-activated human platelets, equal molar concentrations
Protocol: Shown are thrombograms of nanomolar thrombin that were generated in human platelet rich plasma activated with […].
Thrombin generation in citrated human platelet rich plasma (PRP) was quantified by calibrated automated thrombography (CAT) using the Thrombinoscope system (Synapse), according to methods developed by Hemker et al. Aliquots of PRP were incubated with agents for 15 min at room temperature, and then for 5 min at 37° C. in wells of 96-well plates. Thrombin generation was initiated by addition of 0.5 pM tissue factor and CaCl2 to 16.7 mM and monitored in a microtiter plate fluorometer (Fluoroskan Ascent, Thermo Electron Corp., Vantaa, Finland). Thrombograms (nM thrombin generated vs. time) were generated using the Thrombinoscope software, as were key thrombin generation parameters: lag time to onset of thrombin generation (min), peak thrombin concentration (nM), time to peak thrombin (min), and endogenous thrombin potential (ETP; integrated area under the thrombogram curve).
The effects of APT102, annexin V, APT102+annexin V, and APT402 at equal molar concentrations on thrombin generation from 20 uM ADP-activated human platelets were compared using CAT assays (FIG. 3). […] These features were mimicked by APT402.

[4] = Malachite green assay of enzymatic kinetic parameters; type: biochemical
[5] = system: platelet aggregation; test: Ex vivo ADP-induced platelet aggregation after single IV bolus in rabbits; settings: rabbit, 0.40 mg/kg IV bolus
[6] = rabbit, in vivo, iv, 0.4 mg/kg
[7] = system: thrombin generation; test: Thrombin generation during and after bolus plus infusion in rabbits; type: in vivo, rabbit; settings: for thrombin generation: 0.2 mg/kg bolus then 24 μg/kg/min for 120 min
[8] = PK (ELISA) with bolus plus continuous IV infusion in rabbits; settings: rabbit, bolus plus 120 min infusion; significantly decreased 60 min after discontinuation
[9] = system: IVC thrombosis; type: in vivo, mice; settings: for reduction of thrombus weight: mice
Protocol: An electrical injury model of venous thrombosis was used for acute study (Diaz J A et al. Thromb Haemost. 104: 366-375, 2010.
Mice were randomized into the following four groups (n=10/group).
The EIM consistently generated IVC thrombosis in all mice with the mean thrombus weight of 22.5 mg. Thrombus weight, BT, APTT and TCT were measured 48 h post DVT induction.

[10] = system: thrombotic sites of injured arteries; settings: rabbit, in vivo
Protocol: A. APT402 was conjugated to the fluorescent dye (LS288); B. Fluorescent intensity in the injured artery of the rabbit treated with APT402 at 0.2 mg/kg bolus followed by 12 mg/kg/min for 120 min. Each bar represents the mean of 3 readings. C.
A near infra-red (NIR) fluorescent dye (LS288, Ex/Em 773/793) in methanol was conjugated to the functional amines of APT402 (˜1:1). […] For in vivo imaging of the thrombus by fluorescent molecular tomography (FMT), a custom built, fiber-based, portable, video-rate system was used as described (CITE).

[11] = rabbit, in vivo, iv, 0.2 mg/kg
[12] = system: human platelet-rich plasma (PRP); test: ADP-induced human platelet aggregation in platelet-rich plasma; type: cell-based; settings: ADP-activated, light transmission, 6 min
Protocol: FIGS. 1A and 1B show the effect of apyrase APT102 used as such and of a fusion protein thereof, APT402, on platelet aggregation in an ex vivo reaction mixture comprising human platelet-rich plasma (PRP) activated with 20 μM ADP. […] X axis is the assay time (6 min duration), Y axis is the light transmission. […] Arrows indicate addition of ADP and apyrases.
The inhibitory activity on FX activation was assayed using peripheral blood mononuclear cells (PBMC) purified from normal human donors and anesthetized rabbits by standard methods. […] As expected, APT102 had no effect on PBMC pro-coagulant activity.

[13] = Pharmacokinetics (ADPase activity) after single IV bolus in rabbits
[14] = system: IVC fibrosis (collagen deposition); test: Chronic murine electrolytic injury model (EIM) of DVT, fibrosis; type: in vivo; settings: mice, 1.0 mg/kg ip bolus daily for 14 days
Source text: In a chronic fibrotic study, mice were randomized and blinded into the following groups (n=5-12/group).
Collagen deposition was stained with Masson's trichrome 14 days post DVT induction.

[15] = Haemostasis parameters in healthy rabbits with bolus plus infusion; type: in vivo, rabbit
[16] = system: rabbit platelet rich plasma; test: ADP-induced platelet aggregation in rabbit PRP during and after bolus plus infusion; type: in vivo; settings: for ADP-induced (50 uM) platelet aggregation in rabbit PRP: 0.2 mg/kg bolus then 24 μg/kg/min for 120 min
[17] = rabbit EIM, group doses of the 2nd table
[18] = rabbit, bolus plus 120 min infusion, significantly decreased 60 min after discontinuation

Q: Which “occlusion within 2 h” value ([1]; rabbit EIM, ticagrelor 10 mg/kg oral, bivalirudin 5 mg/kg IV bolus then 5 mg/kg/h) does the source give for CCCSc1nc(N[C@@H]2C[C@H]2c2ccc(F)c(F)c2)c2nnn([C@@H]3C[C@H](OCCO)[C@@H](O)[C@H]3O)c2n1 [ticagrelor, reference compound] here?
A: The value was “completely prevented occlusion”.

Q: And the “bleeding time (BT)” value ([1]; rabbit, in vivo)?
A: The value was “prolonged”.

Q: What about the partial thromboplastin time ([1]; rabbit, in vivo) of the same molecule?
A: The partial thromboplastin time was “increased”.

Q: With COC(=O)[C@H](c1ccccc1Cl)N1CCc2sccc2C1 [clopidogrel, Clopidogrel, reference compound] as the molecule, how does the “bleeding time (BT)” value ([1]; rabbit, in vivo) read?
A: The value was “prolonged”.

Q: What does the source list for CC[C@H](C)[C@H](NC(=O)[C@H](CCC(=O)O)NC(=O)[C@H](CCC(=O)O)NC(=O)[C@H](Cc1ccccc1)NC(=O)[C@H](CC(=O)O)NC(=O)CNC(=O)[C@H](CC(N)=O)NC(=O)CNC(=O)CNC(=O)CNC(=O)CNC(=O)[C@@H]1CCCN1C(=O)[C@H](CCCNC(=N)N)NC(=O)[C@@H]1CCCN1C(=O)[C@H](N)Cc1ccccc1)C(=O)N1CCC[C@H]1C(=O)N[C@@H](CCC(=O)O)C(=O)N[C@@H](CCC(=O)O)C(=O)N[C@@H](Cc1ccc(O)cc1)C(=O)N[C@@H](CC(C)C)C(=O)O [bivalirudin, Bivalirudin, reference compound]?
A: partial thromboplastin time [1, 17]: increased; prothrombin time [1, 17]: increased; bleeding time (BT) ([1]; rabbit EIM, group doses of the 2nd table, BT measurement ceiling 5 min): prolonged

Q: Which results are given for “annexin V: protein that binds phosphatidyl serine on activated platelets in competition with prothrombinase complex”?
A: distribution half-life [2]: 5 min; elimination half-life [2]: 20 min; peak thrombin concentration [3]: modestly decreasing; time to peak thrombin [3]: significantly increased

B1: APT402: fusion protein of apyrase APT102, 20 amino acid linker and annexin V (SEQ ID NO: 7-10) (protein)
chain: MMSFVSLLLVGILFHATQADAPEVLPPGLKYGIVLDAGSSGTRVYVYQWPAEKENNTGVVSQTFKCSVKGSGISSYGNNPQDVPRAFEECMQKVKGQVPSHLHGSTPIHLGATAGMRLLRLQNETAANEVLESIQSYFKSQPFDFRGAQIISGQEEGVYGWITANYLMGNFLEKNLWHMWVHPHGVETTGALDLGGASTQISFVAGEKMDLNTSDIMQVSLYGYVYTLYTHSFQCYGRNEAEKKFLAMLLQNSPTKNHLTNPCYPRDYSISFTMGHVFDSLCTVDQRPESYNPNDVITFEGTGDPSLCKEKVASIFDFKACHDQETCSFDGVYQPKIKGPFVAFAGFYYTASALNLSGSFSLDTFNSSTWNFCSQNWSQLPLLLPKFDEVYARSYCFSANYIYHLFVNGYKFTEETWPQIHFEKEVGNSSIAWSLGYMLSLTNQIPAESPLIRLPIEPPVGSTSGGSTSGGSTSGSGATIAQVLRGTVTDFPGFDERADAETLRKAMKGLGTDEESILTLLTSRSNAQRQEISAAFKTLFGRDLLDDLKSELTGKFEKLIVALMKPSRLYDAYELKHALKGAGTNEKVLTEIIASRTPEELRAIKQVYEEEYGSSLEDDVVGDTSGYYQRMLVVLLQANRDPDAGIDEAQVEQDAQALFQAGELKWGTDEEKFITIFGTRSVSHLRKVFDKYMTISGFQIEETIDRETSGNLEQLLLAVVKSIRSIPAYLAETLYYAMKGAGTDDHTLIRVMVSRSEIDLFNIRKEFRKNFATSLYSMIKGDTSGDYKKALLLLCGEDD
modifications: CDS (1)..(2397)
Q: Which “enzymatic kinetic parameters for ATP and ADP” value [4] does the source give for B1 here?
A: The value was “comparable to those of APT102”.

Q: And the “inhibition of 20 μM ADP-induced ex vivo platelet aggregation” value ([5]; 1 h after dosing)?
A: The value was 90%.

Q: What about the “inhibition of 20 μM ADP-induced ex vivo platelet aggregation” value ([5]; 6 h after dosing) of the same molecule?
A: Its value is 80%.

Q: What about the “inhibition of 20 μM ADP-induced ex vivo platelet aggregation” value ([5]; by 10 min after dosing) of the same molecule?
A: Its value is 95%.

Q: What about the “elimination half-life (t1/2)” value [6] of the same molecule?
A: Its value is 360 min.

Q: What about the thrombin generation ([7]; at 60 and 110 min) of the same molecule?
A: Its thrombin generation is “effectively attenuated”.

Q: And the thrombin generation ([7]; at 180 min)?
A: Its thrombin generation is “returned to the baseline level”.

Q: What about the “inhibition of thrombin generation over time” value [7, 18] of the same molecule?
A: The value was “maintained up to 120 min during infusion”.

Q: And the “APT402 plasma concentration over time” value [8]?
A: The value was “maintained up to 120 min during infusion”.

Q: And the “reduction of thrombus weight” value ([9]; 1.0 mg/kg ip bolus daily for 2 days)?
A: The value was 53%.

Q: And the “reduction of thrombus weight” value ([9]; high dose: 0.2 mg/kg ip bolus then 0.09 mg/kg/h sc for 48 h)?
A: The value was 65%.

Q: What about the “reduction of thrombus weight” value ([9]; low dose: 0.2 mg/kg ip bolus then 0.03 mg/kg/h sc for 48 h) of the same molecule?
A: The value was 44%.

Q: And the “prolongation of BT” value ([9]; mouse, in vivo)?
A: The value was “did not cause detectable prolongation”.

Q: And the “prolongation of TCT” value ([9]; mouse, in vivo)?
A: The value was “did not cause detectable prolongation”.

Q: What about the “prolongation of aPTT” value ([9]; mouse, in vivo) of the same molecule?
A: The value was “did not cause detectable prolongation”.

Q: And the bleeding time ([9]; mouse, in vivo, ip, 1 mg/kg)?
A: The bleeding time was “without increasing bleeding time”.

Q: What about the binding to thrombus [10] of the same molecule?
A: Its binding to thrombus is “bound to thrombus”.

Q: What about the “signal in the non-injured control carotid” value [10] of the same molecule?
A: Its value is “no increased signal”.

Q: And the “time by which detectable in the plasma after administration (ELISA)” value [11]?
A: Its value is ≤ 30 min.

Q: What about the “inhibition of ADP-induced human platelet aggregation” value [12] of the same molecule?
A: Its value is “dose-dependently inhibits; also recorded: comparable potency to APT102”.

Q: What about the “extension of elimination half-life compared to annexin V” value ([13]; 6 h vs 20 min) of the same molecule?
A: Its value is 18 fold.

Q: And the distribution phase half-life ([13]; rabbit, 0.40 mg/kg IV bolus)?
A: The distribution phase half-life was 30 min.

Q: And the “time of maximal activity in the plasma after administration” value ([13]; rabbit, 0.40 mg/kg IV bolus, ADPase activity)?
A: Its value is 30 min.

Q: What about the “deaths, increased bleeding or gross side effects” value [14] of the same molecule?
A: The value was “no deaths or increased bleeding or gross side effects”.

Q: What about the “reduction of collagen deposition” value ([14]; Masson's trichrome 14 days post DVT induction) of the same molecule?
A: The value was 33%.

Q: And the “ACT vs control animals” value [15]?
A: Its value is “no differences”.

Q: And the “PT vs control animals” value [15]?
A: The value was “no differences”.

Q: And the “aPTT vs control animals” value [15]?
A: The value was “no differences”.

Q: And the “bleeding time vs control animals” value [15]?
A: Its value is “no differences”.

Q: And the “platelet counts vs control animals” value [15]?
A: The value was “no differences”.

Q: What about the “ADP-induced (50 uM) platelet aggregation in rabbit PRP” value ([16]; at 60 and 110 min) of the same molecule?
A: Its value is “effectively inhibited”.

Q: What about the “ADP-induced (50 uM) platelet aggregation in rabbit PRP” value ([16]; at 180 min) of the same molecule?
A: Its value is “returned to the baseline level”.

Q: What about the “inhibition of ADP-induced platelet aggregation over time” value [16, 18] of the same molecule?
A: Its value is “maintained up to 120 min during infusion”.

Q: And the “thrombus weight compared with any other treatments” value ([1]; rabbit EIM, 24 ug/kg/min)?
A: The value was “lowest thrombus weight”.

Q: What about the “occlusion within 2 h” value ([1]; rabbit EIM, 0.2 mg/kg IV bolus then 12 ug/kg/min) of the same molecule?
A: The value was “completely prevented occlusion”.

Q: What about the “occlusion within 2 h” value ([1]; rabbit EIM, 0.2 mg/kg IV bolus then 24 ug/kg/min) of the same molecule?
A: Its value is “completely prevented occlusion”.

Q: What about the thrombosis weight ([1]; rabbit EIM, infusion 4, 12, 24 μg/kg/min) of the same molecule?
A: Its thrombosis weight is “dose-dependently reduced”.

Q: And the “bleeding time (BT)” value ([1]; rabbit, in vivo)?
A: The value was “did not affect”.

Q: And the “blood pressure (mean arterial pressure)” value ([1]; rabbit, in vivo)?
A: The value was “did not affect”.

Q: What about the heart rate ([1]; rabbit, in vivo) of the same molecule?
A: Its heart rate is “did not affect”.

Q: What about the partial thromboplastin time ([1]; rabbit, in vivo) of the same molecule?
A: The partial thromboplastin time was “did not affect”.

Q: What about the prothrombin time ([1]; rabbit, in vivo) of the same molecule?
A: Its prothrombin time is “did not affect”.

Q: And the peak thrombin concentration [3]?
A: Its peak thrombin concentration is “mimicked”.

Q: And the “time to peak thrombin” value [3]?
A: Its value is “mimicked”.

Q: And the “inhibition of thrombin generation” value ([3]; ADP-activated human PRP)?
A: Its value is “comparable inhibitory effects”.
